In patent publication US5574007A, “Polypeptide capable of interacting with thrombin” (Asahi Kasei Kogyo Kabushiki Kaisha, priority 1990, dated 1996):

Key:
[1] = biological target: T1, thrombin-catalyzed conversion of fibrinogen to fibrin (Homo sapiens, UniProt P00734); experiment: Anticoagulating activity: clotting time of a fibrinogen solution; assay type: biochemical; settings: 0 to 50 nM polypeptide, 10 nM thrombin; polypeptide from COS-1 or CHO cells
T1 construct: Then, 10 nM thrombin is added to the mixture
Protocol: The activity of each of the polypeptides of the present invention to inhibit the thrombin-catalyzed conversion of fibrinogen to fibrin so as to inhibit blood coagulation, is determined by measuring clotting time using Coagulometer KC-10A (manufactured and sold by Heinrich Amelung A.G., Germany). Illustratively stated, to 0.05M Tris-HCl buffer (pH 7.5) containing 5 mM CaCl2 and 0.1M NaCl is added 3.0 μg of fibrinogen (Fraction I, manufactured and sold by Sigma Chemical Company, U.S.A.). To the resultant mixture is added 0 to 50 nM of each of the purified polypeptides of the present invention. Then, 10 nM thrombin is added to the mixture in such an amount that the total amount of the mixture becomes 0.4 ml, and then the coagulation time of the mixture is measured.

[2] = tested on: thrombin-catalyzed platelet aggregation; experiment: Platelet aggregation-inhibiting activity (Platelet Rich Plasma, HEMA TRACER IV); assay type: cell-based; settings: polypeptide in molar amount equal to or more than thrombin; polypeptide from COS-1 or CHO cells
Protocol: The activity of each of the polypeptides of the present invention to inhibit the thrombin-catalyzed platelet aggregation is evaluated using platelet aggregation measuring apparatus HEMA TRACER IV (manufactured and sold by NIKO Bioscience, Inc., Japan). Measurement is carried out according to the manual attached thereto. When 40 μl of a 20 NIH unit/ml thrombin solution (manufactured and sold by SIGMA Chemical Co., U.S.A., T 6759) is added to 180 μl of a Platelet Rich Plasma (PRP) platelet solution (3×10^5 cells/μl) and incubated, the aggregation of platelets occurs. […] The aggregation of platelets is determined on the basis of the transparency, assuming the transparency of Platelet Poor Plasma (PPP) solution as 100%. The ratio of platelet aggregation is plotted against the incubation time (0 min: the time when thrombin or a mixture of thrombin and one of the polypeptides is added to the PRP solution). It is confirmed that the platelet aggregation is inhibited when one of the polypeptides of the present invention is added.

[3] = biological target: T2, thrombin-catalyzed activation of protein C (Homo sapiens, UniProt P00734); experiment: Activated protein C formation against reaction time with purified polypeptide (Example 4-(6)); assay type: biochemical
T2 construct: are added 50 μg/ml protein C, 5 nM thrombin and 5 nM of each of the purified polypeptides
Protocol: To 0.02M Tris-HCl buffer (pH 8.5) containing 0.1M NaCl, 0.5 mM CaCl2 and 10 mg/ml BSA are added 50 μg/ml protein C, 5 nM thrombin and 5 nM of each of the purified polypeptides of the present invention, and reacted at 37° C. To each of the reaction mixtures are added 300 μg/ml antithrombin III (manufactured and sold by Sigma Chemical Company, U.S.A.) and 5 mM EDTA to terminate the reaction. Then, the amount of the activated protein C produced by the reaction is determined by the method described in Example 1-(3) in which a synthetic substrate is used.

[4] = biological target: T2, thrombin-catalyzed activation of protein C; experiment: Activity to promote the activation of protein C (Example 9-(4)); assay type: biochemical
Protocol: With respect to the polypeptide purified in Example 9-(3), the activity to promote the activation of protein C is measured according to the following method. That is, 10 μl of a peptide solution (10 nM), 10 μl of thrombin (15 nM), 10 μl of protein C (3.2 μM), 10 μl of 10×Assay buffer [0.5M Tris HCl (pH 7.5) containing 1% BSA, 1M NaCl and 20 mM CaCl2 ] and 60 μl of distilled water are mixed together. The mixture is reacted at 37° C. for one hour, and antithrombin III and hepalin are added at final concentrations of 100 nM and lu/ml, respectively, thereby stopping the reaction. To measure the concentration of activated protein C, the concentration of AMC ([…]) liberated from a 200 μM substrate of Boc-Leu-Ser-Thr-Arg-MCA in a buffer containing 0.05M Tris HCl (pH 8.0) and 0.1M CsCl is measured at an excitation wavelength of 380 nm and a measuring wavelength of 440 nm.

[5] = biological target: thrombin (Homo sapiens, UniProt P00734); experiment: Capability of binding to thrombin of thrombomodulin deletion polypeptides; settings: expressed in COS-1 cells, purified

B1: E456GlaAsp: polypeptide from PTTM2 CHO cells transfected with pSV2PTTMM6 (prothrombin leader), gamma-carboxyglutamic acid confirmed (protein)
chain: PVEDPCFRANCEYQCQPLNQTSYLCVCAEGFAPIPHEPHRCQMFCNQTACPADCDPNTQASCECPEGYILDDGFICTDIDECENGGFCSGVCHNLPGTFECICGPDSALVRHIGTDC
modifications: gamma-carboxyglutamic acid (Gla) in place of the Glu inserted before Asp367 (third residue of the purified polypeptide, where Edman degradation detected no amino acid); Gla confirmed by amino acid anal
[1]
  clotting time of fibrinogen solution against amount of polypeptide (in words): the longer the clotting time
[2]
  thrombin-catalyzed platelet aggregation (in words): inhibited
[3]; 5 nM polypeptide, 5 nM thrombin, 50 μg/ml protein C, 37° C., polypeptide from COS-1 or CHO cells
  amount of activated protein C with reaction time (in words): increased with the lapse of reaction time
[3]; 30 min after the polypeptide addition
  amount of protein C activated, larger than in the presence of E456Glu: 80%

B2: E45: polypeptide of the 367th to 442nd amino acid residues of human thrombomodulin (pSV2TMD9) (protein)
chain: DPCFRANCEYQCQPLNQTSYLCVCAEGFAPIPHEPHRCQMFCNQTACPADCDPNTQASCECPEGYILDDGFICTDI
[4]
  activity relative to that of the 114-amino acid polypeptide: about one-tenth
[4]; peptide solution 10 nM, thrombin 15 nM, protein C 3.2 μM, 37° C., one hour
  production of activated protein C: 1.7 pmol

B3: polypeptide comprised of the 407th to 480th amino acid residues of human thrombomodulin: deletion polypeptide expressed in COS-1 cells using vector pSV2 (protein)
chain: FCNQTACPADCDPNTQASCECPEGYILDDGFICTDIDECENGGFCSGVCHNLPGTFECICGPDSALVRHIGTDC
[5]
  capability of binding to thrombin (in words): had the capability of binding to thrombin

B4: polypeptide comprised of the 366th to 442nd amino acid residues of human thrombomodulin: deletion polypeptide expressed in COS-1 cells using vector pSV2 (protein)
chain: VDPCFRANCEYQCQPLNQTSYLCVCAEGFAPIPHEPHRCQMFCNQTACPADCDPNTQASCECPEGYILDDGFICTDI
[5]
  capability of binding to thrombin (in words): had the capability of binding to thrombin
